Data from the DeepSol protein solubility set.

Experiment: soluble on expression in E. coli; label from the status in PepcDB or PDB records

Sequence | soluble on expression in E. coli
MCGISGEFRFDNQAADLAAVERITHHLAPRGPDAWGFHAQGPIALGHRRLKIMDLAEASGQPMIDPDLGLAMVFNGAIYNYPELRGELESLGYRFFSGGDTEVLLKGYHAWGADLLPRLNGMFAFAVWERDRQRLFLARDRLGIKPLYYSLDRSRLRFASSLPALLKGGDIASDLDPQALNFYLNFHAVVPAPHTLLEGVKKLPPATWMSVDLDGSCEQRTWWTLDYGPRPDERELTLDDWQERVLDGLREAVAIRQRAAREVGVLLSGGVDSSLLVGLLHEAGVDNLLTFSIGFEDAGGERGDEFQYSDLIAERYHTRHHRLRIGEHEVIEQLPAAFRAMSEPMVSHDCIAFYLLAREVSKHCKVVQSGQGADELFAGYHWYPKVDGADDAFAAYRAAFFDRDHEEYLATVGERFRVEDVAGRFVRDHFASPGAEAAVDKALRLDSTIMLVDDPVKRVDNMTMAWGLEARVPFLDYRLAELSARIPARFKLGDGGKQVLKGAARKVIPSEVIDRPKGYFPVPGLKHLQGRTREWVRELLLDPSQDRGLFQPAIFDRLLSDPDGDLTPLRG | not soluble
MCGIVGYIGYDNAKELLLKGLEKLEYRGYDSAGIAVVNDDNTTVFKEKGRIAELRKVADSSDFDGPVGIGHTRWATHGVPNHENSHPHQSSNGRFTLVHNGVIENYEELKGEYLQGVSFISETDTEVIVQLVEYFSNQGLSTEEAFTKVVSLLHGSYALGLLDAEDKDTIYVAKNKSPLLLGVGEGFNVIASDALAMLQVTSEYKEIHDHEIVIVKKDEVIIKDADGNVVERDSYIAEIDASDAEKGVYAHYMLKEIHEQPAVMRRIIQEYQDAEGNLKIDQDIINDVKEADRIYVIAAGTSYHAGLVGKEFLEKWAGVPTEVHVASEFVYNMPLLSEKPLFVYISQSGETADSRAVLVETNKLGHKSLTITNVAGSTLSREADHTLLLHAGPEIAVASTKAYTAQIAVLSILSQIVAKEHGREADIDLLRELAKVTTAIEAIVDDAPIMEQIATDFLETTRNAFFIGRTIDYNVSLEGALKLKEISYIQAEGFAGGELKHGTIALIEEGTPVVGLATQEKVNLSIRGNVKEVVARGAHPCIISMEGLEKEGDTYVIPHVHELLTPLVSVVALQLISYYAALHRDLDVDKPRNLAKSVTVE | not soluble
MCIVALAWQVFDQIPLCLLSNRDEFYARPTTQLHLWENTPIIAGRDLQSGGTWMGITASGRWAVVTNFRDGHDKKIYDTSRGTLVEDFLLSDLAPIRFAKQLEQRQQHYAGFNLFMGDQSQAVYMSNRGEAPQVLAKGVYVVSNGLMSEHWEKTAHLRKRFTQEFVPMLQAEIAEHDLEYTAWDILEDERKVIPELLPSTGIHPDMEELLSSTFIQSPVYGTRCSNFLRLMKRRWIWAEKTQWGDHAGEMMRMDIQIQLEHHHHHH | not soluble
MCLAIPGKVVEIKGNVGIVDFGGIRREVRLDLLSDVKVGDYVIVHTGFAIEKLDERRAREILEAWEEVFSVIGGE | not soluble
MCLIVFAWRPGHALPLIVAANRDEFYARPTQPLAAWEDAPGVHAGRDLEAGGTWLGVGPQGRFAALTNIRDPGQAQGPRSRGELVAAFLQGELGVGAYLDQVASRSGQYSGFNLLVGDGQRLGYLHAREATPRLLKAGVYGLSNAGLDTPWPKLVKARDGLENLLDTPEPHRLLALLADNEPAADGDLPETGVGLATEKLLSSVFIASQNYGTRASTVLIVDDQGQRRLVERSFGPFGGHLGEIELLVLEHHHHHH | soluble
MCLVNEFVSNSNMKPALNVSGDEKELILQLRRYLEEKLTYLLDQNGTVSIGVSGGSMPRVFSKAILSLPQEQLNWKRIRIFMVDERNVDLDSEESNQGEYLRLFPNELRDVFVPMQIFKDPCLTAQHYEISLRKYLLPEQLNNTARFDILFLGVGPDGHTASIFPGKERLEKITELNWVSVITDSPKPPPSRITLTLQTLQHAKNVAFIICGKQKAEIVRGICDRDQKYPAAQARPFNDKLTLFLDEDAATGVPDRDSSDSDSPPPFDG | not soluble
MCMDLESLLAIKHFRADQAQLALKRQQQAAVAAAAQRQAQGRLDDCRLWAGQLENRLYAELCRRIVKTRDIDEVLQRVGHARDRQASLALQLDDAVRRHEHEIQLLAQQREQHRECFQAQQRIAELVRLQQVEAAALRESLEDREIQEAIELSARGRDDASRAGDGLARLLEHHHHHH | not soluble
MCMYEADVRINGTLIWYYFICKREVWLISHGITADQEDENIEIGRFIHENAYSREKKEIDFDNFKVDVADSIDGKIIVQEVKKSSKFKKSARMQLLFYIYEIKKSGIDARGILLFPEERKREEVVLDEASQKELDSVIKDIFKIVNLEKPPIPEKCKYCRNCAYSELCWA | not soluble
